T1: PAI-1 (Mus musculus, UniProt P22777)
T1 construct: from tissue; host or cells: BalbC Njrj mice, in vivo (blood)
T1 sequence (P22777 23-402): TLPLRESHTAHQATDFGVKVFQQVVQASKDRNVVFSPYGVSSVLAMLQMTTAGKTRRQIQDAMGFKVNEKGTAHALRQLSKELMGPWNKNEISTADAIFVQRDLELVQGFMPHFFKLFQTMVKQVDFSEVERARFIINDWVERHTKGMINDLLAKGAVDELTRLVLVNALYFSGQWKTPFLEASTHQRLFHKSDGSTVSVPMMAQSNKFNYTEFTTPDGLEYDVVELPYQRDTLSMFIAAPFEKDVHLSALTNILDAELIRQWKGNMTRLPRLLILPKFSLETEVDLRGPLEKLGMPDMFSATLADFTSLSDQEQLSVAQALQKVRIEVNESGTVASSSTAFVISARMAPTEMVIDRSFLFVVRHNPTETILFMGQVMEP

B1: 14K hGH: 14K N-terminal fragment of human growth hormone, recombinant, produced and purified from E. coli (protein)
chain: MFPTIPLSRLFDNAMLRAHRLHQLAFDTYQEFEEAYIPKEQKYSFLQNPQTSLSFSESIPTPSNREETQQKSNLELLRISLLLIQSWLEPVQFLRSVFANSLVYGASDSNVYDLLKDLEEGIQTLMGRLEDGSP
B2: 16K hPRL: 16K N-terminal human prolactin fragment, recombinant, produced and purified from E. coli (protein)
chain: LPICPGGAARCQVTLRDLFDRAVVLSHYIHNLSSEMFSEFDKRYTHGRGFITKAINSCHTSSLATPEDKEQAQQMNQKDFLSLIVSILRSWNEPLYHLVTEVRGMQEAPEAILSKAVEIEEQTKRLLEGMELIVSQVHP

Columns and labels:
endothelial cells = assay: Endothelial cell proliferation (BrdU incorporation); format: cell-based, bovine; settings: for anti-proliferative function: down-regulation of PAI-1 expression by si-RNA; for anti-proliferation effect: recombinant wild type PAI-1 added to culture medium
Method: The cells were plated in 96-well culture plates at a density of 2,500 cells per well in 10% FCS/DMEM and allowed to adhere for 24 h. Then complete medium was replaced with SFM for 24 h. […] Proliferation was analysed 24 h later by measuring BrdU incorporation by means of the Cell Proliferation ELISA, BrdU (Colorimetric) (Roche, Clinical Laboratories, Indianapolis, Ind.). […] ID NO: 35); PAI-1 […] ID NO: 36).

uPA = assay: Immunoprecipitation with uPA in presence or absence of PAI-1; format: binding
Method: Western blot analysis of 16K PRL and 14K GH after their immunoprecipitation with uPA in the presence or in the absence of PAI-1. r14K GH and r16K PRL: recombinant proteins controls loaded on gels, no IP performed. (b) HUVEC were incubated with 14K GH or 16K PRL for 2 hours and then subjected to immunofluorescence analysis for uPA and 14K GH or 16K PRL Labellings appears in white for uPA (left panels), 14K GH or 16K PRL (middle panels).

PAI-1 [1] = target: T2, PAI-1 (Homo sapiens, UniProt P05121); assay: Co-immunoprecipitation with anti-PAI-1 antibody and Western blot, human PAI-1; format: binding; settings: for complex with recombinant wild type PAI-1 (co-immunoprecipitation): 10 min at 37° C.; for complex with endogenous PAI-1 from HUVEC culture medium: conditioned medium of HUVEC; for interaction with PAI-1 in plasma samples: human plasma
T2 construct: gift of Pr; P. Declerck
Method: (§1) The interaction was further confirmed by pull-down affinity assays. For the immunoprecipitation 4 μg of recombinant 16K hPRL or 14 hGH were mixed with 3 μg of recombinant wt PAI-1, 500 μl of conditioned media from HUVEC cells, 300 μl of human plasma or 100 μl of mouse plasma. The mixtures were incubated for 10 min at 37° C. 6 μg of mouse monoclonal antibody against PAI-1 (clone 33H1F7, recognize human and mouse PAI-1) was added to each tube and incubated overnight at 4° C. under rotation. For the experiments with mice expressing 16K hPRL, 300 μl of plasma from mice injected with Null-Ad or 16K-Ad adenovirus were collected 5 days after virus injection, and immunoprecipitation was performed as described above with same PAI-1 monoclonal antibody (33H1F7). Fifty microliters of protein A agarose was added to the mix and incubated overnight at 4° C. under rotation. After centrifugation for 1 min at 6000 rpm the supernatants were discarded and the pellets (containing the beads) were washed 5 times with PBS. After a new centrifugation, the beads were resuspended in 30 μl 1×β-mercaptoethanol loading buffer and boiled at 100° C. for 5 min, then left on ice for 5 min. The beads were centrifuged for 5 min at 4° C., then the supernatants were subjected to SDS-PAGE (12% acrylamide) for Western blot analysis.
(§2) For Western Blot Analysis cytoplasmic cell lysate, samples of different CoIP and mouse plasma were separated by SDS-PAGE (12% and 10%) and transferred to a polyvinylidene fluoride membrane (Milipore Corp., Bedford, Mass.). Blots were blocked overnight with 5% milk in Tris-buffered saline with 0.1% Tween 20 and probed for 1 h at RT with primary antibodies: rabbit polyclonal anti-hPRL (DAKO) or rabbit polyclonal anti hGH (home made). After three washes with Tris-buffered saline containing 0.1% Tween 20, antigen-antibody complexes were detected with peroxidase-conjugated goat anti-rabbit secondary antibody and an enhanced fluoro-chemiluminescent system (ECL-plus; Amersham Biosciences, Arlington Heights, Ill.).

ABAE cells = assay: Endothelial cell migration (wound assay); format: cell-based, bovine; settings: for anti-migratory function: down-regulation of PAI-1 expression by si-RNA
Method: A layer of confluent ABAE cells in a 48-well tissue culture dish coated with 0.2% gelatin was wounded with a head of 200-μl tips. The experiment was performed in the presence of 50 ng/ml VEGF and 10 ng/ml bFGF. […] ID NO: 35); PAI-1 […] ID NO: 36).

PAI-1 [2] = target: T1, PAI-1; assay: Co-immunoprecipitation with anti-PAI-1 antibody and Western blot, mouse PAI-1; format: binding; settings: for interaction with PAI-1 in plasma samples: mouse plasma
Method: as §1, §2

PAI-1 [3] = target: T2, PAI-1; assay: Immunofluorescence staining on HUVEC, co-localization with His-tag PAI-1; format: cell-based; settings: HUVECs, PAI-1 added to the medium with 16K PRL
Method: HUVECs were grown to 70% confluence on gelatin-coated 35-mm dishes. After incubation for 3 h with 14K GH (160 ng/ml) or 16K PRL (160 ng/ml), the cells were washed with PBS at room temperature and incubated for 1 h at room temperature under non-permeabilization conditions with mouse anti uPA (American Diagnostica INC) diluted 1/100, rabbit anti prolactin (Dako) diluted 1/100, or rabbit anti human GH (home made) diluted 1/100. Endothelial cells were washed in PBS and incubated with FITC horse anti mouse (Vector Laboratory) and Texas red goat anti rabbit antibodies (Jackson Laboratory). For PAI-1 staining, the cells were incubated simultaneously with Histag PAI-1 at 800 uM and 16K PRL or 14K GH. […] Cryostat tumor sections (5 μm thick) were fixed in acetone at −20° C. and in 100% methanol at 4° C. and then incubated with the primary antibodies, rat monoclonal anti PECAM-1, and rabbit polyclonal anti-prolactin (DAKO) for 1 hour at room temperature. The slides were washed and incubated with a Cy3 goat anti-rat and an FITC goat anti-rabbit antibody. After 3 washes in PBS for 10 min, the slides were covered with coverslips in mounting medium (Victor Laboratories Inc.) and analyzed by fluorescence microscopy.

[4] = absence of PAI-1, data not shown
[5] = PAI-1 si-RNA transfected cells plus added human PAI-1
[6] = recombinant wild type PAI-1 added to culture medium

T2 sequence (P05121 24-402): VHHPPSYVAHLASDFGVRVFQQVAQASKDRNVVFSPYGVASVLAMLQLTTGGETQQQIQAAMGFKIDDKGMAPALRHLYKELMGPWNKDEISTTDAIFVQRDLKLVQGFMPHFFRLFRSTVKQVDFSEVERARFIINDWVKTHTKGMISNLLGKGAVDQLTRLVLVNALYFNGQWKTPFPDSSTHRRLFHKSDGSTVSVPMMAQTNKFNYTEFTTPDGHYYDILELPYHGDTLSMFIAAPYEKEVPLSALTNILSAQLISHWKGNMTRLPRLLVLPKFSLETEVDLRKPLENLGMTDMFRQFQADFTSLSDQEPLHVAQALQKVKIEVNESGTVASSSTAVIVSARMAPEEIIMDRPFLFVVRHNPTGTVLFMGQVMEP

Row | Molecule | anti-proliferative function (endothelial cells) | anti-proliferation effect (endothelial cells) | complex with uPA (immunoprecipitation) (uPA; [4]) | complex with uPA (immunoprecipitation) (uPA; in the presence of PAI-1) | complex with recombinant wild type PAI-1 (co-immunoprecipitation) (PAI-1 [1]) | complex with endogenous PAI-1 from HUVEC culture medium (PAI-1 [1]) | interaction with PAI-1 in plasma samples (PAI-1 [1]) | anti-migratory effect (ABAE cells; [5]) | anti-migratory function (ABAE cells) | anti-migratory effect (ABAE cells; [6]) | interaction with PAI-1 in plasma samples (PAI-1 [2]) | co-localization with PAI-1 (PAI-1 [3]) | complex with endogenous murine PAI-1 in circulation (PAI-1 [2]; plasma of wild type mice 5 days after 16K-Ad injection)
1 | B1 | reduced significantly | reduced significantly | does not form complex | uPA/PAI-1/14K GH complexes | 14K GH/PAI-1 | able to form a complex | interaction was also demonstrated | restored | reduced significantly | reduced significantly | interaction was also demonstrated |  | 
2 | B2 | reduced significantly | reduced significantly | does not form complex | formation of uPA/PAI-1/16K PRL | formation of 16K PRL/PAI-1 | able to form a complex | interaction was also demonstrated | restored | reduced significantly | reduced significantly | interaction was also demonstrated | co-localization of 16K PRL and PAI-1 was observed | complex formation

— patent US20130035289A1, “PHARMACEUTICAL COMPOSITION FOR TREATMENT OF THROMBOSIS-RELATED DISEASES COMPRISING A FRAGMENT OF PROLACTIN (PRL)-GROWTH HORMONE (GH)-PLACENTAL LACTOGEN (PL)-FAMILY PROTEIN” (UNIVERSITE DE LIEGE, priority 2010, published 2013)
